Fold lower affinity than for wild-type ZM109 gp120 data for one molecule are collected here from article PMC3406929.

The experiment concerns the target 1JO8-ZM109 (V1/V2 of HIV-1 strain ZM109 in the 1JO8 scaffold) (not stated | HIV-1 strain ZM109).

B1: antibody PG9 (antibody, V domains shown)
VH: QRLVESGGGVVQPGSSLRLSCAASGFDFSRQGMHWVRQAPGQGLEWVAFIKYDGSEKYHADSVWGRLSISRDNSKDTLYLQMNSLRVEDTATYFCVREAGGPDYRNGYNYYDFYDGYYNYHYMDVWGKGTTVTVSS
VL: QSALTQPASVSGSPGQSITISCNGTSNDVGGYESVSWYQQHPGKAPKVVIYDVSKRPSGVSNRFSGSKSGNTASLTISGLQAEDEGDYYCKSLTSTRRRVFGTGTKLTVL
Turning to B1, the fold lower affinity than for wild-type ZM109 gp120 is 3 fold.
